Test results published in article PMC11429998 (bioRxiv, 2024).

B1: PseCAST TniQ (natural protein)
chain: MAFLFSPKIGPFFDESLESYLLRVVSENFFDSYEGLSLAIREELHELDFEAHGAFPIDLKRLNVYHAKHNSHFRMRALGLLETLLDLPRYELQKLALLKSDIKFNSSAALYKGGVDIPQRFICYHTEEAVDSIPVCPQCLAEEAYIKQSWHIKWVNACAKHQCTLVHKCPECCAPINYIENESITHCSCGFELSCGSTSPVNTLSIDHLNKLLNKSELDDNNPLFKNTTLTERFAALLWYQERYSKEETFCLDDVVNYFNGWPVVFYKELDELSKNAAMKLIDLFNKTEFKFIFGNAILSCPNTQKQREPHFIYSTLLDYLATLVESNPKTKKPNVADLLVSVLEAATLLSISIEQVYRLYQDGILQTAFRHKMNQRINPYKGVFFLRHVIEYKTSFGNDKARMYLSAW

Tests used:
[1] = molecular target: PseCAST Cas7 (Pseudoalteromonas); assay: cryo-EM structure
cryo-EM structure = molecular target: the molecule itself; assay: cryo-EM structure

Row | Molecule | stoichiometry N [1] | stoichiometry N (cryo-EM structure)
1 | PseCAST Cas7 (natural protein) | 6 | 
2 | B1 |  | 2
